Experimental data reported in US20230002480A1.

What was measured:
Experiment in all cases: cell-based or functional assay
[1] = biological target: HIV-1 Env of pseudovirus Ce0393_C3 (HIV-1)
[2] = biological target: HIV-1 Env of pseudovirus ZM135M.PL10a (HIV-1)
[3] = biological target: HIV-1 Env of pseudovirus C1080.c03 (HIV-1)
[4] = biological target: HIV-1 Env of pseudovirus Ce2060_G9 (HIV-1)
[5] = biological target: HIV-1 Env of pseudovirus 620345.c01 (HIV-1)
[6] = biological target: HIV-1 Env of pseudovirus A07412M1.vrc12 (HIV-1)
[7] = biological target: HIV-1 Env of pseudovirus 191084 B7-19 (HIV-1)
[8] = biological target: HIV-1 Env of pseudovirus 6244_13_B5_4576 (HIV-1)
[9] = biological target: HIV-1 Env of pseudovirus TRO.11 (HIV-1)
[10] = biological target: HIV-1 Env of pseudovirus 1006_11_C3_1601 (HIV-1)
[11] = biological target: HIV-1 Env of pseudovirus BJOX009000.02.4 (HIV-1)
[12] = biological target: HIV-1 Env of pseudovirus X2088_c9 (HIV-1)
[13] = biological target: HIV-1 Env of pseudovirus 0260.v5.c36 (HIV-1)
[14] = biological target: HIV-1 Env of pseudovirus 6540.v4.c1 (HIV-1)
[15] = biological target: HIV-1 Env of pseudovirus Du156.12 (HIV-1)
[16] = biological target: HIV-1 Env of pseudovirus BJOX028000.10.3 (HIV-1)
[17] = biological target: HIV-1 Env of pseudovirus 9004SS_A3_4 (HIV-1)
[18] = biological target: HIV-1 Env of pseudovirus 6952.v1.c20 (HIV-1)
[19] = biological target: HIV-1 Env of pseudovirus CNE52 (HIV-1)
[20] = biological target: HIV-1 Env of pseudovirus 231965.c01 (HIV-1)

B1: N49P23 (antibody, V domains shown)
VH: QVRLVQSGAGARKTGASMKLSCSTSGYTFTTHHGHFINWVRQARGQGLEWMGWMNPMTGQMNIEGKFQGRVTLTRDIYSDTAYMEMTRLTTGDTGTYYCARGDFGQNYPFHYWGQGSLVIVSS
VL: LSALTQPASVSGSPGQSVTISCSGTNRYLVSWYQQHPDKAPKLIIYDDNKRPSGISDRFSASRPDDTASLTISGLQTGDEATYWCASYERFGGGTRLTVLS
[1]
  IC50: > 50 mg/L
  IC80: > 50 mg/L
  MPI: 29
[2]
  IC50: > 50 mg/L
  IC80: > 50 mg/L
  MPI: 36
[3]
  IC50: 1.33 mg/L
  IC80: 11.3 mg/L
  MPI: 96
[4]
  IC50: 0.18 mg/L
  IC80: 0.849 mg/L
  MPI: 99
[5]
  IC50: > 50 mg/L
  IC80: > 50 mg/L
  MPI: 0
[6]
  IC50: 0.114 mg/L
  IC80: 0.83 mg/L
  MPI: 97
[7]
  IC50: 0.013 mg/L
  IC80: 0.043 mg/L
  MPI: 100
[8]
  IC50: 0.151 mg/L
  IC80: 0.57 mg/L
  MPI: 100
[9]
  IC50: 0.094 mg/L
  IC80: 0.336 mg/L
  MPI: 100
[10]
  IC50: 0.015 mg/L
  IC80: 0.054 mg/L
  MPI: 100
[11]
  IC50: > 50 mg/L
  IC80: > 50 mg/L
  MPI: 8
[12]
  IC50: > 50 mg/L
  IC80: > 50 mg/L
  MPI: 10
[13]
  IC50: 0.261 mg/L
  IC80: 0.919 mg/L
  MPI: 100
[14]
  IC50: > 50 mg/L
  IC80: > 50 mg/L
  MPI: 29
[15]
  IC50: > 50 mg/L
  IC80: > 50 mg/L
  MPI: 0
[16]
  IC50: 0.021 mg/L
  IC80: 0.123 mg/L
  MPI: 98
[17]
  IC50: 0.043 mg/L
  IC80: 0.223 mg/L
  MPI: 100
[18]
  IC50: 0.007 mg/L
  IC80: 0.023 mg/L
  MPI: 100
[19]
  IC50: 0.014 mg/L
  IC80: 0.051 mg/L
  MPI: 100
[20]
  IC50: > 50 mg/L
  IC80: > 50 mg/L
  MPI: 35

B2: N49P22 (antibody, V domains shown)
V domain 1: HIQLLQSGPQVKKSGDTVRISCETSGYNFVDSRIHWVRQTPEKRLRWMGWINPLQGGVNYAPEFQGRIRMTRDTFIDTVYVDLSGLTPADTAYYYCARGIDGKSYPFHFWGHGTRVTVFS
V domain 2: RFALTQPASVSGSPGQTITITCAGGSVSWFHFPPGKTPRLIIYESSKRPSGVSPRFSGSQSGSTASLIISGLQSDDEGTYFCSILEFFGRGTLVTVLS
[1]
  IC50: > 50 mg/L
  IC80: > 50 mg/L
  MPI: 12
[2]
  IC50: > 50 mg/L
  IC80: > 50 mg/L
  MPI: 27
[3]
  IC50: 15.9 mg/L
  IC80: > 50 mg/L
  MPI: 64
[4]
  IC50: > 50 mg/L
  IC80: > 50 mg/L
  MPI: 19
[5]
  IC50: > 50 mg/L
  IC80: > 50 mg/L
  MPI: 0
[6]
  IC50: 9.6 mg/L
  IC80: > 50 mg/L
  MPI: 63
[7]
  IC50: 0.343 mg/L
  IC80: 1.64 mg/L
  MPI: 98
[8]
  IC50: 0.565 mg/L
  IC80: 2.48 mg/L
  MPI: 97
[9]
  IC50: 0.283 mg/L
  IC80: 1.36 mg/L
  MPI: 99
[10]
  IC50: 0.898 mg/L
  IC80: 14.7 mg/L
  MPI: 83
[11]
  IC50: 17.3 mg/L
  IC80: > 50 mg/L
  MPI: 64
[12]
  IC50: > 50 mg/L
  IC80: > 50 mg/L
  MPI: 8
[13]
  IC50: 1.67 mg/L
  IC80: 14.4 mg/L
  MPI: 93
[14]
  IC50: > 50 mg/L
  IC80: > 50 mg/L
  MPI: 29
[15]
  IC50: > 50 mg/L
  IC80: > 50 mg/L
  MPI: 4
[16]
  IC50: > 50 mg/L
  IC80: > 50 mg/L
  MPI: 0
[17]
  IC50: > 50 mg/L
  IC80: > 50 mg/L
  MPI: 42
[18]
  IC50: 33.2 mg/L
  IC80: > 50 mg/L
  MPI: 56
[19]
  IC50: 1.7 mg/L
  IC80: 10 mg/L
  MPI: 91
[20]
  IC50: 2.04 mg/L
  IC80: 35.2 mg/L
  MPI: 83
